This note sets out measurements from PMC6362288.

The assay concerns the target protein G (UniProt P19909). Put plainly: ELISA; polystyrene wells modified with the PrG-Gra complex (PrG adsorbed on graphene, 2:1); mAb 5, 10, 15 µg/ml; unreacted mAb in the supernatant by Bradford, bound mAb by Anti-IgGk-HRP at 450 nm. For orientation: ELISA stands for enzyme-linked immunosorbent assay.

In turn, mouse monoclonal IgG2b (mAb) (antibody) returned an absorbance (Anti-IgGk-HRP) against PS modified with the PrG alone of 2 fold.
